Measured values published in paper PMC11476048 (Nature, 2024).
Where a chain is given by its changes, count along the chain named. In names and notes the source's numbering stands.

T1: E. aridi E1^BilD (1-507, C417A) (Ensifer aridi TW10, C417A)
T1 chain: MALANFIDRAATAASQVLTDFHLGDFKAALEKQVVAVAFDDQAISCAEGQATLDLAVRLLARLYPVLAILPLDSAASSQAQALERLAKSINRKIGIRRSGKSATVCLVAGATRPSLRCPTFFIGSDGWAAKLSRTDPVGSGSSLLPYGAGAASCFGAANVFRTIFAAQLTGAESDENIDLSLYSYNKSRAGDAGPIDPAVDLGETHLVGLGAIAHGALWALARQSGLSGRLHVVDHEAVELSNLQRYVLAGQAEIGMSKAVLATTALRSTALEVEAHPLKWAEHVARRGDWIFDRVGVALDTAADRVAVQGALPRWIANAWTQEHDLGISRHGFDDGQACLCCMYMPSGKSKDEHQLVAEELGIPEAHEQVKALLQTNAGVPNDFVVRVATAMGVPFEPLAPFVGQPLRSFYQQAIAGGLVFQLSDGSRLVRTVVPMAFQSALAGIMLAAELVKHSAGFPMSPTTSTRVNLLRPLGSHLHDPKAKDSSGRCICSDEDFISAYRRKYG

B1: E. aridi E2^BilB (1-181, wild type) (enzyme, Ensifer aridi TW10)
chain: MPELQTVDPEVSRAKFDREISRFRPYADAYRMQGCFLIEESFPSAFFIFASPKVKPRVIGAAIEIDFTNYDLRPPSVVFVDPFTRQPIARKDLPLNMLRRPQLPGTPPEMISNLIQQNAVSLTDFIQANSLQDSPFLCMAGVREYHDNPAHSGDPWLLHRGSGEGCLAFILDKIIKYGTGP
B2: E. aridi E2^BilB (1-181) Mutant 1 (F36R/I48A/I59K/F83E) (enzyme, Ensifer aridi TW10)
chain: B1 chain with F36R, I48A, I59K, F83E
B3: E. aridi E2^BilB (1-181) Mutant 2 (F36R/I38A/F46K/I48A/I59K/F83E) (enzyme, Ensifer aridi TW10)
chain: B1 chain with F36R, I38A, F46K, I48A, I59K, F83E
B4: E. aridi Ubl^BilA (17-97) (domain or fragment, Ensifer aridi TW10)
chain: KIEIIVVVNGQPTQVEANPNQPLHVVRTKALENTQNVAQPPDNWEFKDEAGNLLDVDKKIGDFGFANTVTLFLSLKAGVAG

Columns and labels:
[1] = target: T1, E. aridi E1^BilD (1-507, C417A); experiment: SEC-MALS
SEC-MALS = target: the molecule itself; experiment: SEC-MALS

| Binder | binding result [1] | stoichiometry N (SEC-MALS) |
| --- | --- | --- |
| B1 | binds | 2 |
| B2 | binds |  |
| B3 | binds |  |
| B4 | binds |  |
